Reference: patent US20240043542A1 (published 2024)
Where two headings read alike, the source gives them in different places.

T1: human B7-H4 on the cell surface (human, UniProt Q7Z7D3 25-282)
T1 construct: full-length human B7-H4 on transfected HEK293T cells or endogenous on SK-BR-3 cells; also called SK-BR-3 (endogenous human B7-H4)
T1 sequence: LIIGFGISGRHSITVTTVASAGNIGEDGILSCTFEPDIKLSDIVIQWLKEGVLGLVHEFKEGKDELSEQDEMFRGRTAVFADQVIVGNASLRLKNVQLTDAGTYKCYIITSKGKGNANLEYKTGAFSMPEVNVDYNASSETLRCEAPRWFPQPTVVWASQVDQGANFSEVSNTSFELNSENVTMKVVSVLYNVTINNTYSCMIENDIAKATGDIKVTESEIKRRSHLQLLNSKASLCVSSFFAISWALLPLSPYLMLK

T2: cynomolgus monkey B7-H4 (recombinant, BLI) (cynomolgus monkey, UniProt Q7Z7D3 25-259 (human entry))
T2 construct: also called Cynomolgus B7-H4
T2 sequence: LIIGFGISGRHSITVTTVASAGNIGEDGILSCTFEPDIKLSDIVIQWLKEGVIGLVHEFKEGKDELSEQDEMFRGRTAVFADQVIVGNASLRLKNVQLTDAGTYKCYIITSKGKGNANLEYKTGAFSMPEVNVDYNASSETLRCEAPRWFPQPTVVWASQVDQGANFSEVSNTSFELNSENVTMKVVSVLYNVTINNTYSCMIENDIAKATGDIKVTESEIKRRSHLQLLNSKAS

T3: mouse B7-H4 (recombinant, BLI) (mouse, UniProt Q7TSP5 29-256, limits assumed)
T3 construct: also called murine B7-H4
T3 sequence: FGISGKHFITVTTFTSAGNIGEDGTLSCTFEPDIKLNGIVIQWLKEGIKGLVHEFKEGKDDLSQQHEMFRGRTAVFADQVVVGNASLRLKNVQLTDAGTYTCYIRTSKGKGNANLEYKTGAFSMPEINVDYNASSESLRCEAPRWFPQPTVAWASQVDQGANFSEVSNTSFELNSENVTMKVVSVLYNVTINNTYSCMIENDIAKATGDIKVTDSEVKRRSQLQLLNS

T4: mouse B7-H4 on the cell surface (mouse, UniProt Q7TSP5 25-257)
T4 construct: full-length, on transfected HEK293T cells
T4 sequence: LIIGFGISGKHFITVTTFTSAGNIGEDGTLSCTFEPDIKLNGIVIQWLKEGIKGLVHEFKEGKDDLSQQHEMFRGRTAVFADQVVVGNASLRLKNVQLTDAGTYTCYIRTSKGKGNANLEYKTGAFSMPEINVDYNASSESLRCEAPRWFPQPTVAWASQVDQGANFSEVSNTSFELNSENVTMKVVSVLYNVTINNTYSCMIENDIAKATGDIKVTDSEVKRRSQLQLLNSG

T5: cynomolgus monkey B7-H4 on the cell surface (cynomolgus monkey, UniProt Q7Z7D3 25-282 (human entry))
T5 construct: full-length, on transfected HEK293T cells
T5 chain: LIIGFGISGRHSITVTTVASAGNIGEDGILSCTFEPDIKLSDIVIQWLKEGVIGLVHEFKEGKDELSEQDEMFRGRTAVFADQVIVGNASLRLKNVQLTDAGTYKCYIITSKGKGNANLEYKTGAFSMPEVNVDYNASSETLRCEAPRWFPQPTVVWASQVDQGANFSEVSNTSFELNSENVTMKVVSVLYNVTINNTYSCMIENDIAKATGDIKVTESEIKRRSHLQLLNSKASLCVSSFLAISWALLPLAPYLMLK

T6: rat B7-H4 on the cell surface (rat, UniProt Q501W4 25-257)
T6 construct: full-length, on transfected HEK293T cells
T6 sequence: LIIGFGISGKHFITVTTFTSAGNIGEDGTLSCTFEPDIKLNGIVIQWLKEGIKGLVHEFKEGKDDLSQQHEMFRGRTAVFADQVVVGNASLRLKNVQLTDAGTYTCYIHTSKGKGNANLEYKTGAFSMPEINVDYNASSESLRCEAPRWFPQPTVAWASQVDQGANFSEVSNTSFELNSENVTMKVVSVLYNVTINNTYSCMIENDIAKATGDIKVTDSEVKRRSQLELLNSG


Experiments:
[1] = biological target: T1, human B7-H4 on the cell surface; test: flow cytometry, SK-BR-3 cells
Description: (§1) Following incubation, cells were pelleted, washed and incubated with a secondary labeling antibody and samples were acquired on a flow cytometer. Data was analyzed using the FlowJo software and MFI was plotted vs. antibody concentration. The EC50 cell binding potency was calculated using nonlinear regression curve fit (GraphPad Prism).

[2] = biological target: T7, recombinant human B7-H4-huIgG1 (human); test: BLI, antigen on Protein A tips;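 further: Anti-B7-H4 antibodies assessed for affinity toward the B7-H4 extracellular domain using biolayer interferometry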
T7 construct: also called B7-H4-extracellular domain (ECD)
Description: (§2) Binding affinities of anti-B7-H4 antibodies to B7-H4-extracellular domain (ECD) were determined by biolayer interferometry (BLI). […] Anti-B7-H4 antibodies were then evaluated for binding.

[3] = biological target: T2, cynomolgus monkey B7-H4 (recombinant, …); test: BLI, antigen on Protein A tips;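 further: Anti-B7-H4 antibodies assessed for affinity toward the B7-H4 extracellular domain using biolayer interferometry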
Description: as §2

[4] = biological target: T3, mouse B7-H4 (recombinant, BLI); test: BLI, antigen on Protein A tips;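 further: Anti-B7-H4 antibodies assessed for affinity toward the B7-H4 extracellular domain using biolayer interferometry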
Description: as §2

[5] = biological target: T4, mouse B7-H4 on the cell surface; test: flow cytometry, transfected HEK293T
[6] = biological target: T1, human B7-H4 on the cell surface; test: flow cytometry, 100 nM, transfected HEK293T
Description: (§3) HEK293T cell lines were transfected to express full-length human, cynomolgus monkey, mouse, or rat B7-H4. In addition, the endogenous human B7-H4 expressing SK-BR-3 breast cancer cell line was used to assess the ability of the antibodies to bind B7-H4 expressed on the cell surface. 1×10⁵ parental HEK293T or transfected HEK293T cell lines were incubated with 100 nM of the B7-H4 antibodies. Following incubation, cells were pelleted, washed, and incubated with a secondary labeling antibody, and samples were acquired on a flow cytometer. Fold binding over the parental cell line (FOP) was calculated as follows: MFI transfected HKE293T cells/MFI parental HEK293T cells.

[7] = biological target: T5, cynomolgus monkey B7-H4 on the cell …; test: flow cytometry, 100 nM, transfected HEK293T
Description: as §3

[8] = biological target: T1, human B7-H4 on the cell surface; test: cell-based or functional assay
[9] = biological target: T5, cynomolgus monkey B7-H4 on the cell …; test: flow cytometry, transfected 293 cells
Description: as §1

[10] = biological target: T4, mouse B7-H4 on the cell surface; test: flow cytometry, transfected 293 cells
Description: as §1

[11] = biological target: T6, rat B7-H4 on the cell surface; test: flow cytometry, transfected 293 cells
Description: as §1

[12] = biological target: T4, mouse B7-H4 on the cell surface; test: flow cytometry, 100 nM, transfected HEK293T
Description: as §3

B7-H4 IgV-huIgG1 [13] = biological target: T8, B7-H4 IgV-huIgG1 (human); test: SPR, antibody captured by anti-human Fab, antigen in flow
T8 construct: also called N-terminal domain of human B7-H4
Description: (§4) Briefly, anti-human Fab antibody was immobilized on a carboxyl-derivatized SPR chip surface, and anti-B7-H4 antibodies were captured on the resulting surface at 5 ug/ml for 30 seconds.

[14] = biological target: T1, human B7-H4 on the cell surface; test: cell-based or functional assay; remark: listed apart in the source
[15] = biological target: T1, human B7-H4 on the cell surface; test: cell-based or functional assay; remark: listed apart in the source
B7-H4 IgV-huIgG1 [16] = biological target: T8, B7-H4 IgV-huIgG1; test: SPR, protocol of Example 4
Description: as §4

[17] = biological target: T1, human B7-H4 on the cell surface; test: flow cytometry, SK-BR-3 cells; remark: listed apart in the source
Description: (§5) The fucosylated and afucosylated anti B7-H4 antibodies were also characterized by flow cytometry. In these experiments, HEK293T cell lines were transfected to express full-length cynomolgus monkey, mouse, or rat B7-H4. In addition, the endogenous human B7-H4 expressing SK-BR-3 breast cancer cell lines were used to assess the cell binding potency of B7-H4 antibodies. […] Following incubation, cells were pelleted, washed, incubated with a secondary labeling antibody, and run on a flow cytometer. Data were analyzed using the FlowJo software. MFI was plotted vs. antibody concentration, and the EC50 cell binding potency was calculated using nonlinear regression curve fit (GraphPad Prism).

[18] = biological target: T5, cynomolgus monkey B7-H4 on the cell …; test: flow cytometry, transfected 293 cells
Description: as §5

[19] = biological target: T4, mouse B7-H4 on the cell surface; test: flow cytometry, transfected 293 cells; remark: listed apart in the source
Description: as §5

[20] = biological target: T6, rat B7-H4 on the cell surface; test: flow cytometry, transfected 293 cells; remark: listed apart in the source
Description: as §5

| Binder | EC50 [1] | Kd [2] | koff [2] | kon [2] | Kd [3] | koff [3] | kon [3] | binding result [4] | binding result [5] | FOP (fold binding over the parental cell line) [6] | FOP (fold binding over the parental cell line) [7] | aAPC Assay EC50 (IFNγ production) [14] | ADCC Assay EC50 (SK-BR-3 target cells) [15] | Kd (B7-H4 IgV-huIgG1 [16]) | koff (B7-H4 IgV-huIgG1 [16]) | kon (B7-H4 IgV-huIgG1 [16]) | EC50 [17] | EC50 [18] | EC50 [19] | other results |
| --- | --- | --- | --- | --- | --- | --- | --- | --- | --- | --- | --- | --- | --- | --- | --- | --- | --- | --- | --- | --- |
| B7-H4 antibody 15495 (antibody, human IgG1, kappa, V domains shown, human IgG1/kappa) VH: QVQLVQSGAEVKKPGSSVKVSCKASGGTFSSYAISWVRQAPGQGLEWMGGIIPIFGTASYAQKFQGRVTITADESTSTAYMELSSLRSEDTAVYYCARQQYDGRRYFGLWGRGTLVTVSS VL: EIVMTQSPATLSVSPGERATLSCRASQSVSSNLAWYQQKPGQAPRLLIYSASTRATGIPARFSGSGSGTEFTLTISSLQSEDFAVYYCQQVNVWPPTFGGGTKVEIKR | 61.2 nM | 9.44 nM | 0.0272 s⁻¹ | 2.89e+06 M⁻¹ s⁻¹ | 5.17 nM | 0.0168 s⁻¹ | 3.25e+06 M⁻¹ s⁻¹ | no binding | no binding (tested: FOP 10; 100 nM antibody) | 619 fold | 524 fold | – | – | – | – | – | – | – | – | – |
| B7-H4 antibody 15441 (antibody, human IgG1, kappa, V domains shown, human IgG1/kappa) VH: not shown VL: DIQMTQSPSTLSASVGDRVTITCRASQSISSWLAWYQQKPGKAPKLLIYDASSLESGVPSRFSGSGSGTEFTLTISSLQPDDFATYYCQQSKSYPRTFGGGTKVEIKR | 34.3 nM | 7.15 nM | 0.00872 s⁻¹ | 1.22e+06 M⁻¹ s⁻¹ | 54.6 nM | 0.0727 s⁻¹ | 1.33e+06 M⁻¹ s⁻¹ | no binding | no binding (tested: FOP 10; 100 nM antibody) | 67 fold | – | – | – | – | – | – | – | – | – | – |
| B7-H4 antibody 15503 (antibody, human IgG1, kappa, V domains shown, human IgG1/kappa) VH: not shown VL: DIQLTQSPSSVSASVGDRVTITCRASQDISSWLAWYQQKPGKAPKLLIYAASSLQSGVPSRFSGSGSGTDFTLTISSLQPEDFATYYCQQATSYPPWTFGGGTKVEIKR | – | 10.4 nM | 0.0205 s⁻¹ | 1.96e+06 M⁻¹ s⁻¹ | 6.32 nM | 0.0115 s⁻¹ | 1.82e+06 M⁻¹ s⁻¹ | no binding | no binding (tested: FOP 10; 100 nM antibody) | 289 fold | 877 fold | – | – | – | – | – | – | – | – | – |
| B7-H4 antibody 15465 (antibody, human IgG1, kappa, V domains shown, human IgG1/kappa) VH: QVQLQESGPGLVKPSQTLSLTCTVSGGSISSGGYYWSWIRQHPGKGLEWIGNIYYSGSTYYNPSLKSRVTISVDTSKNQFSLKLSSVTAADTAVYYCARESSTISADFDLWGRGTLVTVSS VL: DIQMTQSPSSVSASVGDRVTITCRASQGISRWLAWYQQKPGKAPKLLIYAASSLQSGVPSRFSGSGSGTDFTLTISSLQPEDFATYYCQQAHTFPYTFGGGTKVEIKR | 2.13 nM | 51.3 nM | 0.0248 s⁻¹ | 484000 M⁻¹ s⁻¹ | 51.1 nM | 0.0278 s⁻¹ | 544000 M⁻¹ s⁻¹ | – | – | 626 fold | 1320 fold | – | – | – | – | – | – | – | – | Donor 1 Max IFNγ [8]: 230 pg/mL; Donor 2 Max IFNγ [8]: 134 pg/mL; Donor 3 Max IFNγ [8]: 1520 pg/mL; Donor 4 Max IFNγ [8]: 865 pg/mL; aAPC Assay EC50 (IFNγ production) [8]: 4.31 µM; Kd [4]: 89.6 nM; koff [4]: 0.0265 s⁻¹; kon [4]: 296000 M⁻¹ s⁻¹; EC50 [9]: 4.9 nM; EC50 [10]: 5.34 nM; EC50 [11]: 1.47 nM; FOP (fold binding over the parental cell line) [12]: 690 fold; Kd (B7-H4 IgV-huIgG1 [13]): 17.3 nM; koff (B7-H4 IgV-huIgG1 [13]): 0.00417 s⁻¹; kon (B7-H4 IgV-huIgG1 [13]): 241000 M⁻¹ s⁻¹ |
| B7-H4 antibody 20506, afucosylated (antibody, human IgG1, kappa, V domains shown, afucosylated Fc glycan (made in CHO-y cells), human IgG1/kappa) VH: QLQLQESGPGLVKPSETLSLTCTASGGSISHGGYYWSWIRQHPGKGLEWIGNIYYSGSTYYNPSLKSRVTMSVDTSKNQFSLKLSSVTAADTAVYYCARESSTISADFDLWGRGTLVTVSS VL: DIQMTQSPSSVSASVGDRVTITCRASQGISRWLAWYQQKPGKAPKLLIYAASSLQSGVPSRFSGSGSGTDFTLTISSLQPEDFATYYCQQAHTFPYTFGGGTKVEIKR | – | – | – | – | – | – | – | – | – | – | – | 1.05 nM | 1.5 pM | 2.01 nM | 0.000725 s⁻¹ | 360000 M⁻¹ s⁻¹ | 0.767 nM | 1.77 nM | 1.77 nM | – |
| B7-H4 antibody 20506, fucosylated (antibody, human IgG1, kappa, V domains shown, normally fucosylated Fc glycan (made in CHO-x cells), human IgG1/kappa) VH: QLQLQESGPGLVKPSETLSLTCTASGGSISHGGYYWSWIRQHPGKGLEWIGNIYYSGSTYYNPSLKSRVTMSVDTSKNQFSLKLSSVTAADTAVYYCARESSTISADFDLWGRGTLVTVSS VL: DIQMTQSPSSVSASVGDRVTITCRASQGISRWLAWYQQKPGKAPKLLIYAASSLQSGVPSRFSGSGSGTDFTLTISSLQPEDFATYYCQQAHTFPYTFGGGTKVEIKR | – | – | – | – | – | – | – | – | – | – | – | 0.95 nM | 13.5 pM | 1.93 nM | 0.000703 s⁻¹ | 365000 M⁻¹ s⁻¹ | 0.739 nM | 1.77 nM | 1.77 nM | EC50 [20]: 3.25 nM |
